Source: patent publication US9969998B2, “Compositions of adenosine deaminase-2 (ADA2), variants thereof and methods of using same” (Halozyme, Inc., priority 2014, dated 2018)
Substitutions are numbered along the chain they refer to. Names and notes keep the numbering of the source.

B1: E182T: ADA2 variant SEQ ID NO:48 (protein)
chain: IDETRAHLLLKEKMMRLGGRLVLNTKEELANERLMTLKIAEMKEAMRTLIFPPSMHFFQAKHLIERSQVFNILRMMPKGAALHLHDIGIVTMDWLVRNVTYRPHCHICFTPRGIMQFRFAHPTPRPSEKCSKWILLEDYRKRVQNVTEFDDSLLRNFTLVTQHPEVIYTNQNVVWSKFTTIFFTISGLIHYAPVFRDYVFRSMQEFYEDNVLYMEIRARLLPVYELSGEHHDEEWSVKTYQEVAQKFVETHPEFIGIKIIYSDHRSKDVAVIAESIRMAMGLRIKFPTVVAGFDLVGHEDTGHSLHDYKEALMIPAKDGVKLPYFFHAGETDWQGTSIDRNILDALMLNTTRIGHGFALSKHPAVRTYSWKKDIPIEVCPISNQVLKLVSDLRNHPVATLMATGHPMVISSDDPAMFGAKGLSYDFYEVFMGIGGMKADLRTLKQLAMNSIKYSTLLESEKNTFMEIWKKRWDKFIADVATK
modifications: human ADA2 E179T, mature numbering
B2: E182V: ADA2 variant SEQ ID NO:49 (protein)
chain: B1 chain with T179V
modifications: human ADA2 E179V, mature numbering
B3: E182G: ADA2 variant SEQ ID NO:50 (protein)
chain: B1 chain with T179G
modifications: human ADA2 E179G, mature numbering
B4: S265A: ADA2 variant SEQ ID NO:51 (protein)
chain: B1 chain with T179E, S262A
modifications: human ADA2 S262A, mature numbering
B5: S265V: ADA2 variant SEQ ID NO:52 (protein)
chain: B1 chain with T179E, S262V
modifications: human ADA2 S262V, mature numbering
B6: S265M: ADA2 variant SEQ ID NO:53 (protein)
chain: B1 chain with T179E, S262M
modifications: human ADA2 S262M, mature numbering
B7: H267A: ADA2 variant SEQ ID NO:34 (protein)
chain: B1 chain with T179E, H264A
modifications: human ADA2 H264A, mature numbering
B8: H267Q: ADA2 variant SEQ ID NO:35 (protein)
chain: B1 chain with T179E, H264Q
modifications: human ADA2 H264Q, mature numbering
B9: R222Q/K374E: ADA2 combination variant SEQ ID NO:263 (protein)
chain: B1 chain with T179E, R219Q, K371E
modifications: human ADA2 R219Q/K371E, mature numbering
B10: R222Q/K374D: ADA2 combination variant SEQ ID NO:264 (protein)
chain: B1 chain with T179E, R219Q, K371D
modifications: human ADA2 R219Q/K371D, mature numbering
B11: R222Q/R23E: ADA2 combination variant SEQ ID NO:265 (protein)
chain: B1 chain with R20E, T179E, R219Q
modifications: human ADA2 R219Q/R20E, mature numbering
B12: R222Q/K374E/R23E: ADA2 combination variant SEQ ID NO:266 (protein)
chain: B1 chain with R20E, T179E, R219Q, K371E
modifications: human ADA2 R219Q/K371E/R20E, mature numbering
B13: R222Q/K374D/R23E: ADA2 combination variant SEQ ID NO:267 (protein)
chain: B1 chain with R20E, T179E, R219Q, K371D
modifications: human ADA2 R219Q/K371D/R20E, mature numbering
B14: R222Q/S265N/K374E: ADA2 combination variant SEQ ID NO:268 (protein)
chain: B1 chain with T179E, R219Q, S262N, K371E
modifications: human ADA2 R219Q/S262N/K371E, mature numbering

experiment: Adenosine deaminase (ADA) enzymatic activity assay kit; type: biochemical; conditions: purified protein at 5 μg/mL
Method: Adenosine deaminase activity was determined using an adenosine deaminase (ADA) assay kit (Genway, San Diego, Calif.; Cat. No. BQ014EALD) with minor modifications. The ADA assay is based on the enzymatic deamination of adenosine to inosine, which is converted to hypoxanthine by purine nucleoside phosphorylase (PNP). Hypoxanthine is then converted to uric acid and hydrogen peroxide by xanthine oxidase (XOD). Hydrogen peroxide is further reacted with N-Ethyl-N-(2-hydroxy-3-sulfopropyl)-3-methylaniline (EHSPT) and 4-aminoantipyrine (4-AA) in the presence of peroxidase (POD) to generate quinone dye, which is monitored in a kinetic manner.
Briefly, 5 μL samples in duplicates (at appropriate dilutions to measure steady-state, non-saturating enzyme activity) were added to 120 μL R1 reagent (provided by the manufacturer; 50 mM Tris HCL, pH 8.0, 2 mM 4-AA, 0.1 U/mL PNP, 0.2 U/mL XOD, 0.6 U/mL peroxidase) in a 96 well plate, according to manufacturer's instructions. The mixtures were incubated at 37° C. for approximately 5 min and 60 μL of R2 reagent (provided by the manufacturer; 50 mM Tris HCl, pH 4.0, 10 mM Adenosine, 2 mM EHSPT) was added to the mixtures. Then, change in absorbance (AA) at 556 nm over time at 37° C. was measured. One unit of ADA is the amount of ADA that generates one μmole of inosine from adenosine per minute at 37° C. Adenosine deaminase activity in mU/mL was calculated using the following formula: 1 mU/mL=(ΔA/min×Tv)/(Sv×ϵ×1) • where Tv=total volume (185 μL), Sv=sample volume (5 μL), ϵ=32.2×10^−3 μM^−1 cm^−1, 1=0.5 cm.
Adenosine deaminase activity of WT rHuADA2 and variants tested above were determined using the adenosine deaminase activity (ADA) assay described in Example 4. Activity was assessed on purified rHuADA2 WT and variants that were diluted to 5 μg/mL, and then serially diluted 2 fold to generate 4 measurements.
Adenosine deaminase activity of PEGylated rHuADA2 and variants was assessed using the method described in Example 4, and compared to the activity of the corresponding non-PEGylated form.
Selected candidate variants described in Table 8 above, containing an amino acid substitution in a residue that play a role in enzymatic activity, were assessed for their adenosine deaminase activity using the method described in Example 4. To perform the experiments, purified WT rHuADA2 and tested variants were prepared at 5 μg/mL concentration to normalize the amount of protein in each experiment.

Molecule | Adenosine deaminase activity mU/ml | Adenosine deaminase activity ΔA/min
B1 | 6.2 mU/ml | 2.7 ΔA/min
B2 | 8 mU/ml | 3.5 ΔA/min
B3 | 6.9 mU/ml | 3 ΔA/min
B4 | 47.1 mU/ml | 20.5 ΔA/min
B5 | 66.1 mU/ml | 28.8 ΔA/min
B6 | 81.6 mU/ml | 35.5 ΔA/min
B7 | 70.9 mU/ml | 30.8 ΔA/min
B8 | 89.3 mU/ml | 38.8 ΔA/min

same assay, conditions: purified protein at 5 μg/mL; compared to WT-ADA2

Molecule | % of WT activity
B1 | 8%
B2 | 10%
B3 | 9%
B4 | 60%
B5 | 85%
B6 | 105%
B7 | 91%
B8 | 114%

experiment: Kinetic assessment of adenosine deaminase activity (ammonia assay, Michaelis-Menten); type: biochemical; conditions: pH 6.5; [E] = 8.5 nM
Method: Adenosine deaminase activity was determined by the measurement of ammonia released from adenosine when broken down to inosine. Ammonia was measured using a commercially available Ammonia Assay kit (Cat. No. AA0100, Sigma-Aldrich, St. Louis, Mo.). The kit contains dry reagents containing α-ketoglutaric acid and NADPH, which were reconstituted with 5 mL water prior to use in the assay. Ammonia reacts with α-ketogluaric acid (KGA) and reduced nicotinamide adenine dinucleotide phosphate (NADPH) in the presence of L-glutamate dehydrogenase (GDH).
Kinetics parameters of rHuADA2 WT and variants were compared using this assay at different adenosine concentrations at pH 7.6 and 6.5. Adenosine concentrations ranging from 20 μM to 20 mM were used. Sub-molar concentration of adenosine stock was prepared in 1N NaOH.
For the enzymatic assays at pH 7.6, adenosine was serially diluted with 100 mM sodium acetate (NaOAc), pH 4.9. A 2× reaction mixture was prepared, containing reconstituted ammonia assay reagent (containing about 4 mM α-ketoglutarate and about 300 μM NADPH), WT rHuADA2 or variants at 1 μg/mL (17 nM) and glutamate dehydrogenase (GDH, 1:50 dilution). 85 μL of adenosine was added to 85 μL 2× mixture in duplicate in a UV-transparent half-area plate. The change in absorbance (ΔA) at 340 nm over time at room temperature was monitored.
For the enzymatic assay at pH 6.5, adenosine was serially diluted with 200 mM piperazine-N,N′-bis(2-ethanesulfonic acid) (PIPES), pH 6.5. A 2× reaction mixture in 200 mM PIPES, pH 6.5 was prepared, containing 4 mM α-ketoglutarate, 300 μM NADPH, 1 μg/mL (17 nM) rHuADA2 or variants and 50 U/mL GDH (Cat No. G2626, Sigma-Aldrich). The enzymatic reaction was initiated by adding equal volume of adenosine to the 2× mixture in a UV-transparent half-area plate as described above, and the change in absorbance (AA) at 340 nm over time at room temperature was monitored.
Adenosine deaminase activity in mU/mL (μM/min equivalent) was calculated using the following formula: 1 mU/mL=−(−ΔA/min×Tv)/(Sv×ϵ×1) • where Tv=total volume (170 μL), Sv=sample volume (85 μL), ϵ=6.22×10^−3 μM^−1 cm^−1, 1=1 cm.
The activity data were fitted with non-linear regression of Michaelis-Menten equation using Graphpad Prism software to obtain Km and Vmax. Other kinetics parameters such as kcat and kcat/Km were also determined.

Molecule | Km | Vmax
B9 | 990 µM | 58.56 µM/min
B10 | 790 µM | 60.87 µM/min
B11 | 840 µM | 60.47 µM/min
B12 | 860 µM | 54.48 µM/min
B13 | 670 µM | 60.68 µM/min
B14 | 800 µM | 45.53 µM/min

same assay, conditions: pH 6.5; [E] = 8.5 nM; kcat=Vmax/0.0085/60

Molecule | kcat
B9 | 114.82 s⁻¹
B10 | 119.35 s⁻¹
B11 | 118.57 s⁻¹
B12 | 106.82 s⁻¹
B13 | 118.98 s⁻¹
B14 | 89.27 s⁻¹

same assay, conditions: pH 7.6; [E] = 8.5 nM

Molecule | Km | Vmax
B9 | 1580 µM | 87.27 µM/min
B10 | 1710 µM | 77.01 µM/min
B11 | 1460 µM | 84.71 µM/min
B12 | 1920 µM | 78.42 µM/min
B13 | 1340 µM | 88.43 µM/min
B14 | 1350 µM | 65.43 µM/min

same assay, conditions: pH 7.6; [E] = 8.5 nM; kcat=Vmax/0.0085/60

Molecule | kcat
B9 | 171.12 s⁻¹
B10 | 151.00 s⁻¹
B11 | 166.10 s⁻¹
B12 | 153.76 s⁻¹
B13 | 173.39 s⁻¹
B14 | 128.29 s⁻¹
